Measured values taken from the supplement of paper PMC10201428.
± gives the standard deviation of the averaged measurements.

B1: library; a variant is named by its letters at N, in order (parent)
chain: AATGTTGTTGATGCAACCATAAAGTGATATTTAATAATTATTTATAATCAGCAACTTAACCACAAAACAACCATATATTGATATNTCACAAAACAACCATAANTTGATATTTTTGTGAATCGAGTATTTCAGCAAAACTACTGCAGTAAGAA

Columns and labels:
[1] = variants of: B1; experiment: relative integration efficiency (T-LR orientation) vs wild-type transposon end (log2 (normalized fold change)); transposon end mutated: left end; higher = more efficient transposition; settings: with VchCAST RNA-guided transposition machinery (E. coli BL21(DE3) host, lacZ target)
Outline: (§1)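 Each barcoded pool, 1549 left-end or 1849 right-end transposon variants in a pUC57 mini-transposon donor, went into E. coli BL21(DE3) with a T7-driven effector plasmid (CRISPR array, tniQ-cas8-cas7-cas6, tnsA-tnsB-tnsC). Plates contained 0.1 mM IPTG and were held at 37°C for 18 h. Input plasmids and genomic integration junctions were PCR-amplified and read by Illumina sequencing, with two biological output replicates and four reference barcodes. Relative integration efficiency is the fold change of output over input barcode abundance, normalised to the reference barcodes and log-transformed.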

[2] = variants of: B1; experiment: relative integration efficiency (T-RL orientation) vs wild-type transposon end (log2 (normalized fold change)); transposon end mutated: left end; higher = more efficient transposition; settings: with VchCAST RNA-guided transposition machinery (E. coli BL21(DE3) host, lacZ target)
Outline: as §1

Row | Variant | relative integration efficiency (log2) [1] | relative integration efficiency (log2) [2]
1 | CG T9A G10C A11T T12A | -4.24 ± 1.9 | -1.59 ± 0.56
2 | CG G26A | -0.184 ± 0.65 | -0.427 ± 0.47
3 | CG G26C | -1.96 ± 1.7 | -1.36 ± 0.65
4 | CG G26T | -0.577 ± 1.1 | -0.329 ± 0.41
5 | CG G124T T125G | -0.377 ± 0.42 | -0.329 ± 0.048
6 | CG C89A | 0.447 ± 0.3 | 0.031 ± 0.013
7 | CG C89T | 0.203 ± 0.062 | -0.158 ± 0.031
8 | CG C89G | 0.0739 ± 0.015 | -0.315 ± 0.029
9 | CG C98A A99C T100G A101C | -1.33 ± 0.029 | -2.27 ± 0.92
10 | CG T5C | -0.291 ± 0.23 | -0.319 ± 0.008
11 | CG T5G | 0.0272 ± 0.098 | 0.0254 ± 0.14
12 | CG T5A | -0.149 ± 0.06 | -0.22 ± 0.057
13 | CG T28A A29T | -0.0554 ± 0.23 | -0.309 ± 0.44
14 | CG G51T C52A A53C A54C | -0.964 ± 0.62 | -0.488 ± 0.45
15 | CG C71A C72A A73C T74G | -2.28 ± 1.8 | -2.51 ± 1
16 | CG T5G T6G G7T T8G | < -10 | -6.89 ± 0.7
17 | CG T5A T6A | < -10 | -6.46 ± 0.12
18 | CG T12A G13A T31C A77C T86G | -0.319 ± 0.56 | -0.196 ± 0.058
19 | TG G24A T30A A70C T76A T84A C87A | 0.298 ± 0.13 | -0.172 ± 0.16
20 | CG G115C | 0.709 ± 0.14 | 0.417 ± 0.026
21 | CG G115T | 0.42 ± 0.24 | 0.238 ± 0.1
22 | CG G115A | 0.113 ± 0.17 | -0.259 ± 0.26
23 | CG C71G C72G A73T T74A | -1.87 ± 0.61 | -2.18 ± 0.97
24 | CG T25A G26C | -1.33 ± 1.5 | -1.73 ± 0.85

Row | Variant | relative integration efficiency (log2) [1] | relative integration efficiency (log2) [2]
25 | CG G24T | 0.871 ± 0.023 | 0.72 ± 0.19
26 | CG G24A | 0.726 ± 0.12 | 0.3 ± 0.075
27 | CG G24C | -0.15 ± 0.17 | -0.164 ± 0.021
28 | CG G10C A11T | < -10 | 0.833 ± 0.19
29 | CG G10T A11C T12G G13T | -4.3 ± 0.89 | -1.43 ± 0.49
30 | CG T6G G7T T8G T9G | < -10 | -7.37 ± 0.95
31 | CG T9G G10T A11C T12G | -1.29 ± 0.52 | -0.645 ± 0.35
32 | CG C89G A90T | 0.739 ± 0.17 | 0.378 ± 0.24
33 | CG C98A A99C | -1.94 ± 1 | -1.73 ± 0.54
34 | CG G26T A27C T28G A29C | -1.37 ± 0.4 | -1.9 ± 1.2
35 | CG C61A A62C | 0.514 ± 0.034 | 0.443 ± 0.054
36 | CG T6C | -1.5 ± 1 | -2.65 ± 0.37
37 | CG T6A | < -10 | -6.68 ± 0.076
38 | CG C94A A95C A96C C97A | -1.9 ± 0.51 | -1.87 ± 0.78
39 | CG C97G | -0.468 ± 0.14 | -0.455 ± 0.23
40 | CG C97A | -0.467 ± 1.2 | -0.235 ± 0.37
41 | CG C97T | -0.391 ± 0.74 | -0.324 ± 0.13
42 | CG G115C T116A | 0.199 ± 0.12 | -0.00924 ± 0.092
43 | CG T9C | 0.146 ± 0.38 | 0.242 ± 0.0041
44 | CG T9G | 0.416 ± 0.19 | 0.28 ± 0.09
45 | CG T9A | -0.191 ± 0.61 | -0.00405 ± 0.092
46 | CG C72G A73T T74A A75T | -1.75 ± 0.9 | -1.77 ± 0.81
47 | CG C68A A69C A70C C71A | -1.37 ± 0.95 | -1.67 ± 0.63
48 | CG G13T C14A A15C A16C | -1.69 ± 1.1 | -0.389 ± 0.12

Row | Variant | relative integration efficiency (log2) [1] | relative integration efficiency (log2) [2]
49 | CG C72A A73C | -2.02 ± 0.55 | -2.16 ± 0.91
50 | CG G13A T30A T31C T32A A77C T86G | -0.338 ± 0.55 | -0.517 ± 0.16
51 | CG G24T T78G T104G | 0.121 ± 0.35 | -0.352 ± 0.37
52 | CG C63G A64T A65T A66T | 0.34 ± 0.24 | 0.217 ± 0.0048
53 | CG C61G | -0.0835 ± 0.46 | -0.191 ± 0.019
54 | CG C61T | 0.151 ± 0.41 | -0.122 ± 0.029
55 | CG C61A | 0.321 ± 0.14 | 0.0593 ± 0.091
56 | CG G4T T5G T6G G7T | < -10 | -6.583 ± 0.046
57 | CG C63G | 0.324 ± 0.23 | 0.223 ± 0.039
58 | CG C63A | 0.438 ± 0.02 | 0.237 ± 0.012
59 | CG C63T | 0.266 ± 0.018 | 0.0804 ± 0.061
60 | CG T25G G26T A27C T28G | -2.73 ± 1.1 | -2.55 ± 0.99
61 | CG T25G T79G T105G | -3.03 ± 1.7 | -2.73 ± 1.2
62 | CG G117C A118T A119T T120A | 0.101 ± 0.3 | 0.268 ± 0.02
63 | CG C87A A88C | 0.256 ± 0.18 | -0.00605 ± 0.14
64 | CG G7T T8G | < -10 | -7.23 ± 1.1
65 | CG C89G A90T A91T A92T | -0.0713 ± 0.9 | -0.00767 ± 0.14
66 | CG C121A A123G G124A T129C G132A A134C A135T A136T A137C C138A C141G G143T C144T | 0.708 ± 0.024 | 0.721 ± 0.23
67 | CG G51T C52A | 0.348 ± 0.34 | 0.159 ± 0.19
68 | TG G24A T30A T76A A77G C87T | 0.724 ± 0.54 | 0.0845 ± 0.24
69 | CG C89A A90C | 0.0275 ± 0.49 | -0.181 ± 0.15
70 | CG G24T T25G | -0.649 ± 0.2 | -0.561 ± 0.34
71 | CG T28A T82A T108A | -2.22 ± 2.1 | -1.09 ± 0.57
72 | CG C98G | -0.135 ± 0.48 | -0.464 ± 0.23

Row | Variant | relative integration efficiency (log2) [1] | relative integration efficiency (log2) [2]
73 | CG C98T | -0.0503 ± 0.61 | -0.178 ± 0.14
74 | CG C98A | -0.338 ± 1.2 | -0.0969 ± 0.46
75 | CG G13C C14G A15T A16T | -1.69 ± 1.2 | -1.03 ± 0.47
76 | CG C61A A62C C63A A64C | -0.0245 ± 0.0054 | 0.137 ± 0.14
77 | CG G26C G80C G106C | -5.11 ± 2.5 | -6.9 ± 1.7
78 | CG T20A T74A T100A | -1.01 ± 0.38 | -1.12 ± 0.54
79 | CG T25C | 0.0625 ± 0.14 | -0.137 ± 0.12
80 | CG T25G | -0.618 ± 1 | -0.455 ± 0.37
81 | CG T25A | -0.158 ± 0.68 | -0.346 ± 0.3
82 | CG G106T A107C | -1.19 ± 0.39 | -1.42 ± 0.84
83 | CG C94G A95T | -2.11 ± 0.65 | -1.23 ± 0.53
84 | CG G26C A27T T28A A29T | -1.67 ± 0.28 | -1.58 ± 0.67
85 | CG T3A G4C | -0.231 ± 0.33 | 0.0698 ± 0.073
86 | CG G10T A11C | -2.92 ± 0.037 | -1.58 ± 0.41
87 | CG G26C A27T | -3.33 ± 1.1 | -2.12 ± 0.85
88 | CG G115C T116A G117C A118T | 0.334 ± 0.11 | -0.12 ± 0.028
89 | CG G13A | 0.397 ± 0.29 | 0.195 ± 0.069
90 | CG G13T | -0.887 ± 0.83 | 0.0664 ± 0.041
91 | CG G13C | -0.392 ± 0.57 | 0.0316 ± 0.11
92 | CG T12A G13C C14G A15T | -0.874 ± 0.76 | -0.341 ± 0.43
93 | CG C72A A73C T74G A75C | -2.39 ± 1.6 | -2.27 ± 0.64
94 | CG C63A A64C A65C A66C | -0.236 ± 0.15 | -0.189 ± 0.012
95 | TG G24A T30A T76A T78G C87A | 0.0926 ± 0.5 | 0.0283 ± 0.13
96 | CG T3G G4T | 0.453 ± 0.4 | 0.121 ± 0.041

Row | Variant | relative integration efficiency (log2) [1] | relative integration efficiency (log2) [2]
97 | CG C87A | -0.42 ± 0.76 | -0.276 ± 0.053
98 | CG C87T | -0.29 ± 0.12 | -0.0232 ± 0.071
99 | CG C87G | 0.0991 ± 0.48 | -0.138 ± 0.019
100 | CG T12A G13A T30A A77C T86G | -0.394 ± 0.45 | -0.113 ± 0.12
101 | CG T8A | -0.491 ± 0.035 | -0.209 ± 0.19
102 | CG T8G | < -10 | -6.68 ± 0.98
103 | CG T8C | -0.996 ± 0.69 | -1.39 ± 0.56
104 | CG G115T T116G G117T A118C A119C T120G C121A G122T A123C G124T T125G | 0.199 ± 0.37 | 0.000247 ± 0.072
105 | TG G24A T30A A70C T76A T86G | 1.23 ± 0.52 | 0.692 ± 0.36
106 | CG G4T | 0.222 ± 0.16 | -0.172 ± 0.075
107 | CG G4C | 0.0545 ± 0.11 | -0.131 ± 0.036
108 | CG G4A | -0.235 ± 0.11 | -0.0961 ± 0.035
109 | CG C87G A88T | 0.294 ± 0.33 | 0.11 ± 0.21
110 | CG T20C | -1.08 ± 0.45 | -1.07 ± 0.49
111 | CG T20G | -0.668 ± 0.64 | -0.834 ± 0.6
112 | CG T20A | -0.647 ± 0.083 | -0.343 ± 0.17
113 | CG C121A G122T A123C G124T T125G | 0.905 ± 0.042 | 0.666 ± 0.12
114 | CG T12A G13A T32A A77C T86G | 0.117 ± 0.45 | -0.0481 ± 0.05
115 | CG C94G A95T A96T C97G | -1.95 ± 1.2 | -0.731 ± 1
116 | CG G24T T25G G26T A27C | -2.96 ± 1.7 | -2.31 ± 0.84
